The source of these data is article PMC10094033, “pilE G-Quadruplex Is Recognized and Preferentially Bound but Not Processed by the MutL Endonuclease from Neisseria gonorrhoeae Mismatch Repair Pathway”.

Data set [1] addresses T1, ngMutL (Neisseria gonorrhoeae, UniProt Q5F8M6 1-658).
T1 sequence: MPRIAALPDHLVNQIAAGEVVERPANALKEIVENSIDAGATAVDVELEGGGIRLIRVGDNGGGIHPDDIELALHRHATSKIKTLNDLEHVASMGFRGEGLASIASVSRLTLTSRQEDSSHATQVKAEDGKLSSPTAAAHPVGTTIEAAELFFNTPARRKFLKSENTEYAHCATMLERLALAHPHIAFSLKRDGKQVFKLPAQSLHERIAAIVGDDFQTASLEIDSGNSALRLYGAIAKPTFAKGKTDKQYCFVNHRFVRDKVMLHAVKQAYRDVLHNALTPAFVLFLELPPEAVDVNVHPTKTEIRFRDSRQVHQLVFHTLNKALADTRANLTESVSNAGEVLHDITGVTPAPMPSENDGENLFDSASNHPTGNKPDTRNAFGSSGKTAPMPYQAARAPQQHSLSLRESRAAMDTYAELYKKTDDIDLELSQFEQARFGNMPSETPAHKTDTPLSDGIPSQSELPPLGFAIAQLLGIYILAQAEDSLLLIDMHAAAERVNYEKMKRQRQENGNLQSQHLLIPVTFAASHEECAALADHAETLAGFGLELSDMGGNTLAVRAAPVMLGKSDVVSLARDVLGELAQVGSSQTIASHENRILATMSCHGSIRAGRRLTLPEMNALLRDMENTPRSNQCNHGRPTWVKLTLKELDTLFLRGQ
As to the kind of experiment: EMSA; apparent Kd, per dimer; no ATP; 20 mM HEPES pH 8.0, 100 mM KCl, 0.5 mg/mL BSA, 1 mM DTT, 20 nM DNA, 15-1000 nM ngMutL dimer, 10 min on ice; 6% native PAGE in TAE at 4 C. The conditions noted are these: protein: recombinant, tags: N-terminal His6, chain copies: 2, label: 3'-TAMRA on strand 1, blunt. A general note: In EMSA bound probe runs differently from free probe, usually more slowly.

Data set [2] has as its target T1, ngMutL. The experiment in a line: EMSA; increasing ATP; binding not significantly reduced by ATP; 20 mM HEPES pH 8.0, 100 mM KCl, 0.5 mg/mL BSA, 1 mM DTT, 20 nM DNA, 15-1000 nM ngMutL dimer, 10 min on ice; 6% native PAGE in TAE at 4 C. To be noted: protein: recombinant; tags: N-terminal His6; chain copies: 2; label: 3'-TAMRA on strand 1; duplex with unpaired G4 insert in strand 1, blunt ends.

B1: 41pilG4/41M (dsDNA)
DNA 1: ACGCGTTAGAATAGGGTGGGTTGGGTGGGGAATTTTCTATT
DNA 2: AATAGAAAATTCCCCACCCAACCCACCCTATTCTAACGCGT
As for B1, the Kd with ngMutL [1] (G4 may be partially preserved by CD) turned out to be 0.65 µM.

B2: 95G4/76M (mixed)
DNA 1: ATAGGACGCTGACACTGGTGCTTGGCAGCTGAGCCATATTTGGGTGGGTGGGTGGGTTGCTCGAGTAACGCTCATAGGATCCAAGCGCGAAAGGA
DNA 2: TCCTTTCGCGCTTGGATCCTATGAGCGTTACTCGAGCATATGGCTCAGCTGCCAAGCACCAGTGTCAGCGTCCTAT
As for B2, in the data set with ngMutL [2], the binding result is listed as “binds”.

B3: 95pilG4/95M (dsDNA)
DNA 1: GTCGGAATTTGAGATTTTTGAATTTACGCGTTAGAATAGGGTGGGTTGGGTGGGGAATTTTCTATTTTTTAAAAAGCTCCGTTTTCTTGGAAAGC
DNA 2: GCTTTCCAAGAAAACGGAGCTTTTTAAAAAATAGAAAATTCCCCACCCAACCCACCCTATTCTAACGCGTAAATTCAAAAATCTCAAATTCCGAC
Consider B3, for which, in the data set with ngMutL [1], the Kd was 0.123 µM.
